Measurements as given in US20230203162A1 (NUMAB THERAPEUTICS, published 2023).

Experiments:
[1] = molecular target: T1, cynomolgus monkey MSLN on recombinant CHO cell line (cynomolgus monkey); experiment: cELISA on CHO cells expressing cynomolgus monkey MSLN, HRP-Protein L
T1 construct: whole, on cells; also called plasma-membranous cynomolgus monkey MSLN

[2] = molecular target: T2, recombinant human MSLN (purchased from Peprotech) (human, UniProt Q13421 296-598, limits assumed); experiment: SPR, MSLN immobilized on CM5, scFv as analyte, 1:1 Langmuir
T2 construct: Bought protein; also called recombinant human mesothelin

[3] = molecular target: T3, recombinant cynomolgus monkey MSLN (purchased from Sino Biological) (cynomolgus monkey); experiment: SPR, cynomolgus MSLN immobilized on CM5, scFv as analyte, 1:1 Langmuir
T3 construct: Bought protein

[4] = molecular target: T4, plasma-membranous human MSLN on cell lines (H226, HPAC, H292, OVCAR-3, MeT-5A) (human, UniProt Q13421 296-598); experiment: cELISA on H226 cells, HRP-Protein L
T4 construct: whole, on cells; also called human MSLN on H226 cells; mesothelin on target cells

[5] = molecular target: biotinylated MSLN (human MSLN in the MSLN/MUC16 competition ELISA) (human, UniProt Q13421 296-598, limits assumed, biotinylated); experiment: competition ELISA, scFv titrated with biotinylated MSLN; competitor coated MUC16
[6] = molecular target: T4, plasma-membranous human MSLN on cell …; experiment: cell-based or functional assay
[7] = molecular target: human serum albumin (hSA, Sigma-Aldrich A3782) (human, UniProt P02768 25-609); experiment: SPR, hSA amine-coupled to CM5, antibody injected, pH 5.5, 1:1 Langmuir
[8] = molecular target: T2, recombinant human MSLN (purchased from …); experiment: SPR (Biacore T200), human MSLN; which of the two formats (MSLN immobilized / antibody captured) not given
[9] = molecular target: soluble mesothelin (sMSLN); experiment: cell-based or functional assay
[10] = molecular target: T4, plasma-membranous human MSLN on cell …; experiment: flow cytometry on H226 cells, protein L-PE, 4PL fit
[11] = molecular target: T4, plasma-membranous human MSLN on cell …; experiment: flow cytometry on Met-5A cells, protein L-PE, 4PL fit
[12] = molecular target: T5, human recombinant CD3ε protein (Sino Biological) (human, UniProt P07766 23-126); experiment: SPR, CD3ε amine-coupled to CM5, antibody injected
T5 construct: Bought protein; also called recombinant human CD3ε; human CD3ε

[13] = molecular target: T4, plasma-membranous human MSLN on cell …; experiment: flow cytometry on OVCAR-3 cells, protein L-PE, 4PL fit

B1: anti-MSLN scFv PRO1783 (scFv)
scFv: DIQMTQSPSSLSASVGDRVTITCQASQNIYSNLAWYQQKPGKAPKLLIYDASDLASGVPSRFSGSGSGTDFTLTISSLQPEDFATYYCQQVRSSSDIDNPFGTGTKVTVLGGGGGSGGGGSGGGGSGGGGSQVQLVESGGGLVQPGGSLRLSCAASGFSLSSYAMGWVRQAPGKGLEWIGYISTINNTYYASWAKGRFTISRDNSKNTVYLQMNSLRAEDTAVYYCAREIRSGWVDYGFSIWGQGTLVTVSS
notes: also called 54-01-G02-sc01
EC50 [1]: 12 nM | rel. EC50 (EC50, Amatuximab/EC50, scFv) [1]: 0.03 ratio | rel. Maximum binding (OD450-690 nm, scFv/OD450-690 nm, Amatuximab) [1]: 0.89 ratio | Kd [2]: 2.91 nM | koff [2]: 0.00227 s⁻¹ | kon [2]: 780000 M⁻¹ s⁻¹ | Kd [3]: 30.6 nM | koff [3]: 0.0527 s⁻¹ | kon [3]: 1.72e+06 M⁻¹ s⁻¹ | EC50 [4]: 1.44 nM | rel. EC50 (EC50, Amatuximab/EC50, scFv) [4]: 0.16 ratio | rel. Maximum binding (OD450-690 nm, scFv/OD450-690 nm, Amatuximab) [4]: 0.57 ratio | IC50 [5]: 0.5 nM | Maximum inhibition at highest sample conc. [5]: 99.2% | rel. IC50 (IC50, Amatuximab/IC50, scFv) [5]: 0.03 ratio

B2: PRO2567 (MATCH4) (other)
chain 1: AFELTQSPSSLSASVGDRVTITCQASESINSRLAWYQQKPGQPPKLLIYDASDLTSGVPSRFSGSGSGTDFTLTISSLQPEDFATYYCQGYGGSSTTTFGTGTKLTVLGGGGGSGGGGSGGGGSGGGGSEVQLVESGGGLVQPGGSLRLSCAASGFSLSSYAMNWVRQAPGKGLEWIGHINAGDIAYYATWAKGRFTISRDNSKNTVYLQMNSLRAEDTAVYFCARGAGGFSTGPFKLWGQGTLVTVSSGGGGSGGGGSEVQLVESGGGLVQPGGSLRLSCAASGFSLSSYDMSWVRQAPGKGLAWIGASYASGPTYYASWAKGRFTISRDNSKNTVYLQMNSLRAEDTATYFCARGGWTGTSHSNIWGQGTLVTVSSGGGSGGGSGGGSGQSQLVESGGGLVQPGGSLRLSCAVSGFSLSSYAMGWVRQAPGKCLEYIGYISKIGTTYYASWAKGRFTISKDNSKNTVYLQMNSLRAEDTAVYFCARGSSSGGYLDDGFDPWGQGTLVTVSS
chain 2: ALQMTQSPSSLSARVGDRVTIKCQASQSISNYLAWYQQKPGKPPKFLIYDASDLASGVPSRFSGSGSGRDFTLTISSLQPEDFATYYCQQVYDSNNVENVFGCGTKVTVLGGGGGSGGGGSGGGGSGGGGSQSQLVESGGGLVQPGGSLRLSCAVSGFSLSSYAMGWVRQAPGKCLEYIGYISKIGTTYYASWAKGRFTISKDNSKNTVYLQMNSLRAEDTAVYFCARGSSSGGYLDDGFDPWGQGTLVTVSSGGGGSGGGGSALQMTQSPSSLSARVGDRVTIKCQASQSISNYLAWYQQKPGKPPKFLIYDASDLASGVPSRFSGSGSGRDFTLTISSLQPEDFATYYCQQVYDSNNVENVFGCGTKVTVLGGGSGGSDIQMTQSPSSLSASVGDRVTITCQSSQSVFSNNYLAWFQQKPGQSPKRLIYSASTLASGVPSRFSGSGSGTDFTLTISSLQPEDFATYYCLGSYACSSADCYVFGTGTKVTVLG
notes: Heterodimer
Fold-diff Window (mean Met-5A EC50 / mean H226 EC50) [6]: 28.5 fold | average mean H226 EC50, cell killing (LDH release) [6]: 0.00346 nM | average mean Met-5A EC50, cell killing (LDH release) [6]: 0.0987 nM | Kd [7]: 8.8 nM | koff [7]: 0.00453 s⁻¹ | kon [7]: 515000 M⁻¹ s⁻¹ | Kd [8]: 1.41 nM | koff [8]: 0.000578 s⁻¹ | kon [8]: 411000 M⁻¹ s⁻¹ | Delta 0-50 ng/mL sMSLN (x-fold change in H226 killing potency) [9]: 3.2 fold | Delta 0-500 ng/mL sMSLN (x-fold change in H226 killing potency) [9]: 23.8 fold | EC50 [10]: 0.611 nM | max. binding (MFI) [10]: 809000 MFI | EC50 [11]: 0.0824 nM | max. binding (MFI) [11]: 11200 MFI | Kd [12]: 4.78 nM | EC50 [13]: 6.64 nM | max. binding (MFI) [13]: 170000 MFI

B3: PRO2566 (MATCH4) (other)
chain 1: AFELTQSPSSLSASVGDRVTITCQASESINSRLAWYQQKPGQPPKLLIYDASDLTSGVPSRFSGSGSGTDFTLTISSLQPEDFATYYCQGYGGSSTTTFGTGTKLTVLGGGGGSGGGGSGGGGSGGGGSEVQLVESGGGLVQPGGSLRLSCAASGFSLSSYAMNWVRQAPGKGLEWIGHINAGDIAYYATWAKGRFTISRDNSKNTVYLQMNSLRAEDTAVYFCARGAGGFSTGPFKLWGQGTLVTVSSGGGGSGGGGSEVQLVESGGGLVQPGGSLRLSCAASGFSLSSYDMSWVRQAPGKGLAWIGASYASGPTYYASWAKGRFTISRDNSKNTVYLQMNSLRAEDTATYFCARGGWTGTSHSNIWGQGTLVTVSSGGGSGGGSGGGSGQSQLVESGGGLVQPGGSLRLSCAVSGFSLSSYAMGWVRQAPGKCLEYIGYISKIGTTYYASWAKGRFTISKDNSKNTVYLQMNSLRAEDTAVYFCARGSSSGGYLDDGFDPWGQGTLVTVSS
chain 2: ALQMTQSPSSLSARVGDRVTIKCQASQSISNYLAWYQQKPGKPPKFLIYDASDLASGVPSRFSGSGSGRDFTLTISSLQPEDFATYYCQQVYDSNNVENVFGCGTKVTVLGGGGGSGGGGSGGGGSGGGGSQSQLVESGGGLVQPGGSLRLSCAVSGFSLSSYAMGWVRQAPGKCLEYIGYISKIGTTYYASWAKGRFTISKDNSKNTVYLQMNSLRAEDTAVYFCARGSSSGGYLDDGFDPWGQGTLVTVSSGGGGSGGGGSALQMTQSPSSLSARVGDRVTIKCQASQSISNYLAWYQQKPGKPPKFLIYDASDLASGVPSRFSGSGSGRDFTLTISSLQPEDFATYYCQQVYDSNNVENVFGCGTKVTVLGGGSGGSGGSGGSGDIQMTQSPSSLSASVGDRVTITCQSSQSVFSNNYLAWFQQKPGQSPKRLIYSASTLASGVPSRFSGSGSGTDFTLTISSLQPEDFATYYCLGSYACSSADCYVFGTGTKVTVLG
notes: Heterodimer
Fold-diff Window (mean Met-5A EC50 / mean H226 EC50) [6]: 436 fold | average mean H226 EC50, cell killing (LDH release) [6]: 0.00609 nM | average mean Met-5A EC50, cell killing (LDH release) [6]: 2.66 nM | Kd [7]: 6.89 nM | koff [7]: 0.00399 s⁻¹ | kon [7]: 579000 M⁻¹ s⁻¹ | Kd [8]: 1.52 nM | koff [8]: 0.000608 s⁻¹ | kon [8]: 400000 M⁻¹ s⁻¹ | Delta 0-50 ng/mL sMSLN (x-fold change in H226 killing potency) [9]: 3.1 fold | Delta 0-500 ng/mL sMSLN (x-fold change in H226 killing potency) [9]: 14.2 fold | EC50 [10]: 0.564 nM | max. binding (MFI) [10]: 757000 MFI | EC50 [11]: 0.106 nM | max. binding (MFI) [11]: 12100 MFI | Kd [12]: 2.97 nM | EC50 [13]: 5.13 nM | max. binding (MFI) [13]: 154000 MFI

B4: reference anti-MSLN scFv PRO1795 (scFv)
scFv: DIQMTQSPSSLSASVGDRVTITCQASESIGNYLAWYQQKPGKAPKLLIYSASTLASGVPSRFSGSGSGTDFTLTISSLQPEDFATYYCQSTDYGDSYIFGTGTKVTVLGGGGGSGGGGSGGGGSGGGGSEVQLVESGGGLVQPGGSLRLSCAASGISVSNDYYMCWVRQAPGKGLEWIGCISTYIGNTHYASWAKGRFTISRDNSKNTVYLQMNSLRAEDTAVYYCAKNAGYPGYRYAIDLWGQGTLVTVSS
notes: also called 54-22-H03-sc01
EC50 [1]: 0.76 nM | rel. EC50 (EC50, Amatuximab/EC50, scFv) [1]: 0.7 ratio | rel. Maximum binding (OD450-690 nm, scFv/OD450-690 nm, Amatuximab) [1]: 0.81 ratio | Kd [2]: 0.321 nM | koff [2]: 0.000183 s⁻¹ | kon [2]: 568000 M⁻¹ s⁻¹ | Kd [3]: 1.08 nM | koff [3]: 0.0011 s⁻¹ | kon [3]: 1.02e+06 M⁻¹ s⁻¹ | EC50 [4]: 0.25 nM | rel. EC50 (EC50, Amatuximab/EC50, scFv) [4]: 0.98 ratio | rel. Maximum binding (OD450-690 nm, scFv/OD450-690 nm, Amatuximab) [4]: 0.71 ratio | IC50 [5]: 0.02 nM | Maximum inhibition at highest sample conc. [5]: 99% | rel. IC50 (IC50, Amatuximab/IC50, scFv) [5]: 0.87 ratio
